Experimental findings from the DeepSol protein solubility set are described below.

The series is described as follows: soluble on expression in E. coli; label from the status in PepcDB or PDB records.
Turning to “MRPPLIERYRNLLPVSEKTPVISLLEGSTPLIPLKGPEEARKKGIRLYAKYEGLNPTGSFKDRGMTLAVSKAVEGGAQAVACASTGNTAASAAAYAARAGILAIVVLPAGYVALGKVAQSLVHGARIVQVEGNFDDALRLTQKLTEAFPVALVNSVNPHRLEGQKTLAFEVVDELGDAPHYHALPVGNAGNITAHWMGYKAYHALGKAKRLPRMLGFQAAGAAPLVLGRPVERPETLATAIRIGNPASWQGAVRAKEESGGVIEAVTDEEILFAYRYLAREEGIFCEPASAAAMAGVFKLLREGRLEPESTVVLTLTGHGLKDPATAERVAELPPPVPARLEAVAAAAGLL”, the “soluble on expression in E. coli” value is reported as “soluble”.
For the sequence “MSLSSTFSARGPLLTAAVLLVGLLAGCASSQSATAPSPDDSGQAQSPAQNETGENGLKPFGDVVPDTARTDPGLLTTHRFDGKLYVEIPDSLIGRELLMVSRAAQTPDGFGYGGEKTATQVLRWQRRGDQLYLRVVSHEDMAQEDDPVYQAVQNSNLEPIIQSFSIEALNEDSTGVVAEVTDLFTSDVPSLGIPSAAREEYRVRRLDGDRTYIKGVESFPENTDIEAVLTYQAENPPSNASTKTLTVSMNHSMVLLPKEPMQPRLCDDRVGYFSVERVNYSSDEQRATEACFITRWKLEPKDPEAYARGELVEPKEPIVYYIDPATPKKWRPYLKQGVEAWQSTFREAGFKNAIIAKDPPSAEEDSTFDPDDIRYSTIRYFASEVQNAYGPHVHDPRSGEILESDIGWYHNVMNLLRNWYFVQTAAVNPEARKPVFSTEVMGKLVRFVAAHEVGHTLGLPHNMGSSNAVPVDSLRSPSYTADHGTAPSIMDYARFNYVAQPGDGVENFLPRIGTYDEWAVRWGYTKRPTGSPEEQAQTLDEMILEHTDDPRYFFGASGSIDPRSQSEDLGRDAMEASRLGIANLKRILPNLIQWTSRDGEGYATLEELYGAVVNQWRRYMGHVSQHLGGVHETPKTYGQEGPVYEPVSATDQERAVDFLLTHAFETPTWMVEADVLRRIEHAGALERVREAQVGVLDGVLDPERMARMLEAEAMSEDDVYGVGDLFGDLRGGVWAELESGSVIDPYRRNLQRGYLERLDYLMTAEVEAPPPEYQQYIDYTPVDVSQSDIRPYVRAELKTLRDDVQQGLRRTTDETTEMHLQDVLARIDQTLNGTEGHHHHHH”, the “soluble on expression in E. coli” value is “not soluble”.
Take “MSLSDGYHRSPSSRVPRIEGCQHTADASPSDATGPRRHAMTAHNREPVDYLAGEMPLHRYCAHHAAQTPERIALLWYGRTICWRELDQLSTRLAVQFQRLGVARGDRVALFLQNCPQAILAHLAAAKLGAIAVPCLPLSRQHELRDQLTDCGAKILIAAADLMPIVDAARPGTAIATVITTRYADLQPAQPACRKALAVPPELIAADAASAPAGRGQAGSGQFDLMQLLAEPVDVAERNAVAAIQVDLDEVALMIYTSGTTGRPKGAMLTHRNALYKTAVTVQMSGIHAADVLLAAAPLSHIAGMLMGMNLMLYAGAPTILLFRFDPLAVLQAIDRYCVTWWYSMTPMNLAVMAHPEAGQYRMASLVNNPCTSFGAPLTEAIADRWRAFAGPKCRIYEAAYGLSETHTCDTVTPPDAPRWGWHGKIVPQTEVRIVDPRTGTALPPGRSGEITIRSPGVFRGYWRRDEATRAALQDGFLRTGDIGQVSPDGYLQWQGRLKELIKVSGYSVFPEDVEALLSRHPAIRQVAVTPLPDPDKGEVVCAHVVRMSGTALTEAELIAWSRENMAPYKVPRRVRFHDALPATVTGKILRRLLREEAAVAEGHHHHHH”: the “soluble on expression in E. coli” value is listed as “soluble”.
In the case of “MGSDKIHHHHHHMKETEARAAEALRRLLENIPILHVEGIDAEAVSGDWVPDLIARLVVDGKRHLLICEYKSSGQPRFARSALLELRNYVAQRAPEATPVFIAPYISPVVRKMCEEKGVGYLDLEGNARIAFGGVFIERMVTDKPVVEQRELRSLFRPKSAQVLRAMLRDPGRAWRVTELSEISGVSLGHVSNVRTGLIDREWARASDDGLILSEPDALLDAWRDSYAAPAGERSSFYTPLHGSALEDAARSVLRVEDTRGRAAFASFSAAQWLAPYGRTGTHYFFADEDGLRKLQAALKLAPALKGENVIVTVPKDLGLLADTVEPAPGAICTSPVQTYLDLSIAGERGAEAADHLRQERLSWPR”, the “soluble on expression in E. coli” value is recorded as “not soluble”.
For “GPGSMEYNARYQVSPRDQFLRKVVVVPYGVLGMQMTLQGGLVRAGSEPDESTFIVDPANLRHIFTTAVGATGASGAIYNMLGLRGPFPDEVVQAISRVCDTKFYKYGERANVIHVVDPDFREGAWSEREAAVELSRAYRNVFHEFVRGDGDVLRVPPLSSGVLSGSLYNQLPIITQSAVAMAFEQLHTFDREYLLRRDKQVELCVFMNREWDMYQNVFKNCTQPSKL”, the “soluble on expression in E. coli” value is recorded as “soluble”.
